From patent US20160376333A1 (University of Washington, published 2016)

What was measured:
[1] = biological target: T1, Epstein-Barr virus BHRF1 a.a. 1-161 with C-terminal avi-6his tag (Epstein-Barr virus); experiment: yeast display library, FACS sort at 400 nM BHRF1, deep sequencing
T1 construct: also called EBV BHRF1; BHRF1-biotin
T1 chain: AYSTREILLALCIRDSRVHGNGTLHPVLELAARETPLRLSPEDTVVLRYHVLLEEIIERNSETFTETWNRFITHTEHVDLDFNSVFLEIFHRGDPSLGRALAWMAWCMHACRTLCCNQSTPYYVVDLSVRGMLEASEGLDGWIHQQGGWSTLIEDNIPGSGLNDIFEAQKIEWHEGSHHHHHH

[2] = biological target: T1, Epstein-Barr virus BHRF1 a.a. 1-161 …; experiment: yeast display library, FACS sort at 100 nM BHRF1, deep sequencing

Binder	Log2 enrichment ratio [1] [log2]	Log2 enrichment ratio [2] [log2]
Index 68 (designed binder) GVSIEWAFDFLENKAEEDAREARRLAQKLAEEFFKHSAREEDRAKLTKKWIAVALMIIGDIFNVEQFTKQQGEEFVKRGLRSEDDFKEYLRKMEEKKEEAERIAKRAKDDMLKARDLG	-3.63	-2.57
Index 21 (designed binder, also called computational precursor for BbpD04) GFDWKKVLDKAKDLAENDVREAKQKLEEFYKKAMKLDLTQEMRRKLMLEWIAAMLMAIGDIFNAIEQGKQEADKLKKLGKVLSQLLDELKRRLEELKEEAALKAHDFGREFELKLLFG	-2.81	-3.38
Index 14 (designed binder) GLSADDLFDYAEDRMREGWKDFEELAGEAEKKAKEHTLSDQERREATEKWIAAALELIGDAFNAIRWAEELGKLYVKLNLDDKQKVEELKKKLEERAKEEAQKARKRGDKLEDLADSG	-0.65	-2.91
Index 73 (designed binder) GKDLDEIIDEARKEMDDDADDGKKKAEKLLKLHAGTNHSQDDFNEAHRRWIAVALEEIGDLFNAALRAWRKIEEEIRKNQRRKEEAEKAKEKVSKEYERASRKAAELGKEFEERVEQG	-2.27	-3.14
Index 08 (designed binder) GWDARRALKYVYERMREDLEYARNQIDNMEDRADQYDARTEERKEFTKRWIALALMLIGDGFNAFERAKEWIDDGKNNNQRSSDEADYAKDEALKFIFYAAFEARRKGDELDKKAEGG	-0.8	-3.06
Index 19 (designed binder) GERVEEILRKMLDDALLHFLEHRDDARERKERGERHQPRDEEREELSHDWIAAALMAIGDIFNAKLRAEERAEEFLKWGLRSQDDKKELEERAKEAAKIALKWAEEAGKEADEAEKAG	-1.98	-2.97
Index 20 (designed binder) GLRFEEIERYAREEADKIADEAKERFEKLKKLFLWLTDKDEERLKMTHLWIAGALEAIGDLFNAAELAKELAEKAARLTSQDANRRDEARKKIDEAEKEAADKVSKAAKEAAKFFEQG	-3.65	-3.87
Index 64 (designed binder) GLSGDDAEDFARQEIEKRAREAEEKARKLIWLASKYDAKREEALKFHLRWIAFALMMIGDAFNAEEIAREMLEIARELGLTREEEAKEKLEKIRKKETEASKKMAERGRRLDNQANNG	-1.68	-3.51
Index 66 (designed binder) GRSKDDATKEAWERLERLLKEFKEKAEKLRDKAQAHYVYKQFALKVTILWIAWALKLIGDAFNFIEEAEKKMRENRERNLISEDDAREEKRKLEEFARRASKKANKIGDDLDRQLELG	-2.49	-2.03
Index 12 (designed binder) GEDDDKVLKWALEALRKVLDEAKEKLEKLKKYTDGDGFGEDYRREFFRKWIAIALEAIGDIFNIMMEALQKADKHKKLNTHDSQKADEAKEKIKKFADEAEERAKELAKKGEAWLLKG	-1.37	-2.56
Index 07 (designed binder) GEEFKKKLKKWEEWLLKATNEAENQARNMWQKAEQTDLEDQQRIRAVDFWIAIALMAIGDKFNADQEGDEEFEKYKKKGRASEDKIKEAKDERDRAKKRWEQFVKEAGERAFRGEQLG	-1.16	-2.79
Index 09 (designed binder) GKEAKKRIQEALEEAKRKAEKLLREHEKKKKEHLLGDKRDREKTEETDKWIAEALMLIGDIFNLYMKFEWEKEREKKLGLLREEEEKEVEDEAKDAYLKALKLAYLVSKKGHEVAELG	-2.05	-2.55
Index 06 (designed binder) GRSANDILKQFLEMLQEALRKFDEKKNKIEDEWKQFDLSTQRREEATHKWIAAALMAIGDMFNALRWALEEALKAKLKNLQSSDDLKEAIERMMKLMLEKAQEIQEKGRELADKIEQG	-1.45	-2.35
Index 62 (designed binder) GKLGEELREDAEKKGEEDMRRFERRIREIKRKLKFGYDFEQRKREATHKWIAFALEMIGDAFNFAQKLERALELFKKWNIYSEDDLRELKKRFEEAKEKLKKFADRIRDEGLKAVLLG	-2.65	-3.21
Index 69 (designed binder) GEQAEKALRRAKRRAKWGLDDAKDILDDIEAEIRWYYPRDEERFKFVDRWIAAMLMVIGDLFNAKREALERALRLMRKGLISQDQFKKFMEKLEKIILWGKFQARKLGREKESEITQG	-3.99	-3.25
Index 10 (designed binder) GDSDDDDLKDALLRMLWAAAQAIYHSLENMERKEKFDMHFEEERRDTLQWIADALRAIGDAFNEMMRRRRELEKKRENNIISEQRARLYEEFLKRFAEWASRELAKAGKKEANKLNEG	0.62	-0.72
Index 11 (designed binder) GNILDEAKDEMREEMEKLWKKFKDEVEEERKEAEREEKHFQERAELTKRWIARALMAIGDMFNRFREAKEKLEKRRELGLISEEDARKALLLLEEFMRRMAEFAKKLGDDLMRDAEKG	-1.55	-2.62
Index 17 (designed binder) GRSAEIMREILEKQAEDDAKKIRDIAQKWKERRKRYDPRDEEREEEVEKWIAFALMAIGDIFNLARWALLQARWERRWNLSHEDEGKNHEENVKDAEDRAHWKAREAAREGAKMSWEG	-2.54	-3.41
Index 71 (designed binder) GERAERARDWAKDQMDDELEKAREKLWKLAFIAFKFYLKLELLFKLMFRWIAIMLEAIGDFFNVWAIAKRWLERYKLQNNIRKEEIEKAKERAKKLYEEAADKAAKLGRFYMKLLTSG	-3.07	-2.58
Index 74 (designed binder) GTDHQAFDEWARRELERIVEEARERAERLREWIEQKDASREELTKFFAIWIAISLMAIGDLFNVKEQAKRLAELLEFLGLQRKEEIEKSKKNAEKLADEAMKKASKLDAKVEKELMQG	-2.62	-3.38
Index 65 (designed binder) GNDLKDIARQIEEQAKKALDDMAKLIRELAEKAEKFYPSKDDIRRLTHYWIAAALMAIGDAFNRLQEARRRAEWLRKWGLRREEEAEKAKKEAEERHERAKELAHKMGDEMEEKLKRG	-2.31	-3.2
Index 05 (designed binder) GKDADKKKDEAKKKAEWKEREVFERLEKMEWKKRKDSVSKDDARKFTLKWIADDLELIGDLFNLKEEAREVAEDAARNNQITEEQREEDEKDLEKLAKEHSWRAAYRGKLKAKEFWEG	-0.83	-2.5
Index 00 (Design BbpD04) (designed binder) GADWKKVLDKAKDIAENRVREIKQKLEEFYKKAMKLDLTQEMRRKLMLEWIAAMLMAIGDIFNAIEQAKQEADKLKKAGQVNSQLLDELKRRLEELKEEASRKCHDYGREFQLKLEYG	3.19	3.92
Index 18 (designed binder) GGTEDDIKDLAEKWRDDMKKEFLREFLRIKEWTKYWGWREEGRKLATLRWIALSLMHIGDLFNLKELAKKLVDDIKKKGLEHEERAERAREEAEKIMEKAAKLDSILSKLAAKLIEEG	0.98	-1.36
Index 70 (designed binder) GLLWLAIILKAEELARKKDDEAEERIRRLEDEKRKGDPGTLGEAERTDRWIAIMLMAIGDAFNVMLEAKEEAEKLEKLGLVHKELLEKVKEEAERLFERSSDNFEEAAKRADDMEKEG	-3.13	-3.02
Index 13 (designed binder) GSKWEEDREKAKREAEKKLDEAKDKLDLYKDFALRFDASDELKTKWTLEWIALALEMIGDVFNYALEAKEFAEKKARNNLLLDDLKDLYKLYLALLAKEESKKAIEEGDKLREAIEKG	-1.6	-3.07
Index 61 (designed binder) GEHLDELLLKLLWLAIQFAERAKLTIELWKLWGKITQSYNEWAEKAARDWIAAALMIIGDMFNHKQKAEEEAKKFAKKGLKRKEELEELLKKLEEFIKRAKKLIKETAQKHEEASKMG	-3.54	-2.79
Index 72 (designed binder) GGSYDDIADLAKKLHKKIAEEAKKKIDELLKEAFEDKPYEEEFAKKMFKWIAIALMAIGDLFNAAELAKRLAEDLKKDNNRDENKAEEAKQRAEQFEKEGAEELAKKGEEAAKKLAGG	-3.47	-3.34
Index 63 (designed binder) GDDKEKVKDYAKKRALEDVLRAKELAEKFIDEAKKSDHSKQNERQYIIAWIAFMLMAIGDVFNAMMEAKRLAELLKRLGLRRWEEAEEVKQKAEELAEEASRLLADLGKDFAKKIEQG	-2.41	-2.52
